Results from US20240148892A1 (DUALITY BIOLOGICS SUZHOU, published 2024).

Columns and labels:
[1] = molecular target: T1, Human B7-H3/CD276 protein, His tag (2IgB7H3) (human, UniProt Q5ZPR3-2 29-245); assay: SPR (Biacore 8K), antibody captured on anti-human Fc IgG, human 2IgB7H3 as analyte, 1:1 model
T1 construct: Bought protein; 25.2 kDa used in the SPR calculation; also called human 2IgB7H3; ACRO B73-H52E2; not shown: His tag
T1 sequence (looked up): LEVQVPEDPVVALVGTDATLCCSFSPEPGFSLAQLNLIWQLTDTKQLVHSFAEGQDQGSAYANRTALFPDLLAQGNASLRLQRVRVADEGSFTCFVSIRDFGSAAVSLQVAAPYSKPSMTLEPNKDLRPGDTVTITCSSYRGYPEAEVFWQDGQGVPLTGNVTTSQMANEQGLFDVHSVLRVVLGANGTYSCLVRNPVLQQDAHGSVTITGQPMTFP
Procedure: The affinity of antibodies for human 2IgB7H3 was determined using surface plasmon resonance (SPR). The affinity of antibodies for human 2IgB7H3 was determined by Biacore 8K. An activator was prepared by mixing 400 mM EDC and 100 mM NHS (GE) immediately prior to injection into the channel. The CMS sensor chip was activated for 420 seconds with the activator. Goat anti-human Fc IgG (30 μg/mL in 10 mM NaAc, pH 4.5) was then injected into the channel at a flow rate of 10 μL/min for 420 seconds. The chip was deactivated by 1 M ethanolamine hydrochloric acid. The antibodies diluted in running buffer (1×HBS-EP+) were injected into the channel at a flow rate of 10 μL/min for 30 seconds. […] Glycine (10 mM, pH 1.5) was injected as regeneration buffer after the dissociation phase.
The sensorgrams for the reference channel and the buffer channel were subtracted from the test sensorgrams. The experimental data were fitted with a 1:1 binding model. The molecular weight of the human 2IgB7H3 used in the calculation was 25.2 kDa.
The experimental data were fitted by a 1:1 binding model bundled with the Biacore 8K evaluation software.

[2] = molecular target: T2, cynomolgus monkey B7H3 on transfected FlpinCHO cells (cynomolgus monkey); assay: flow cytometry (FACS) on FlpinCHO cells transfected with cynomolgus monkey B7H3
T2 construct: whole, on cells; also called W3XX088-FlpinCHO.cPro1.pool
Procedure: FACS was used to detect the binding of antibodies to cynomolgus monkey B7H3. FlpinCHO cells were transfected with cynomolgus monkey B7H3 (W3XX088-FlpinCHO.cProl.pool) (1×10⁵ cells/well), and the transfected cells were incubated with various concentrations of antibodies (3.16-fold serially diluted with 1×DPBS/1% BSA from 50 nM to 0.0005 nM) in a volume of 100 μL/well in a refrigerator set to 4 ° C. for 1 h. Anti-human B7H3 reference antibody enoblituzumab (MacroGeneics) was used as a positive control. Human IgG1 isotype antibody was used as a negative control. After washing the cells with 1×DPBS/1% BSA, Alexa 647 goat anti-human antibody (diluted in a 1:500 ratio in 1×DPBS/1% BSA) was added. The cells were incubated in a refrigerator set to 4° C. for 0.5 h in the dark. The mean fluorescence intensity (MFI) of the cells was measured by a flow cytometry and analyzed by FlowJo. EC₅₀ values were calculated by four-parameter non-linear regression analysis using GraphPad Prism 7 software.

[3] = molecular target: T3, Human B7-1 protein, His Tag (human, UniProt P33681 35-242); assay: ELISA, B7 family protein immobilized on plate, serially diluted antibody
T3 construct: Bought protein; also called ACRO B71-H5228; not shown: His tag
T3 sequence (looked up): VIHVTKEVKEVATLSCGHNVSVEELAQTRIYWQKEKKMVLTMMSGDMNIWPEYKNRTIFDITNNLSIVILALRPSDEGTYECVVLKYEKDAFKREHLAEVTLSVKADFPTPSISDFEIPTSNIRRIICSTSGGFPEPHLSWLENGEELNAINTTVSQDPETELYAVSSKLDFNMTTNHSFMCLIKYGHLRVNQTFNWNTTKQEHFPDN
Procedure: (§1) Human PD-Ll protein (see the table above), human B7-H2 protein, human B7-H3 protein, human B7-H4 protein, human B7-H5 protein, human B7-H6 protein, human B7-1 protein, human B7-2 protein, human PD-L2 protein, human B7-H7 protein, and human BTNL2 protein were separately immobilized on 96-well plates by incubation at 4° C. overnight. The 96-well plates were then blocked by incubation with 1% BSA in PBS at 37° C. for 1 h. After blocking, the 96-well plates were washed 3 times with PBST (PBS containing 0.05% Tween 20). […] After incubation, the 96-well plates were washed 3 times with PBST, incubated with a secondary antibody (see the table above) in binding buffer at 37° C. for 1 h, and then washed again. TMB was added for color development, and the reaction was stopped by 1 M H₂SO₄.

Human B7-H7, His Tag = molecular target: T4, Human B7-H7, His Tag (human, UniProt Q9UM44 23-344); assay: as above
T4 construct: Bought protein; also called human B7-H7 protein; ACRO B77-H52H5; not shown: His tag
T4 sequence (looked up): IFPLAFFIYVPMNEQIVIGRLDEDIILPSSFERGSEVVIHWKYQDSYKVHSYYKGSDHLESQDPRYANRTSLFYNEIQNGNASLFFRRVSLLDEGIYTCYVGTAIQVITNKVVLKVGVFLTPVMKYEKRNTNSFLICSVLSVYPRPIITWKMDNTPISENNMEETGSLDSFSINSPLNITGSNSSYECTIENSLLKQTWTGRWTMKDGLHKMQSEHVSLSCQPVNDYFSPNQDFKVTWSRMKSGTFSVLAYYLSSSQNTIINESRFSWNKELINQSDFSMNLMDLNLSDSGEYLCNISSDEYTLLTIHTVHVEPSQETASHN
Procedure: as §1

[4] = molecular target: T5, human full-length B7H3 expressed on MCF-7 cells (human, UniProt Q5ZPR3 29-534); assay: cell-based or functional assay
T5 sequence: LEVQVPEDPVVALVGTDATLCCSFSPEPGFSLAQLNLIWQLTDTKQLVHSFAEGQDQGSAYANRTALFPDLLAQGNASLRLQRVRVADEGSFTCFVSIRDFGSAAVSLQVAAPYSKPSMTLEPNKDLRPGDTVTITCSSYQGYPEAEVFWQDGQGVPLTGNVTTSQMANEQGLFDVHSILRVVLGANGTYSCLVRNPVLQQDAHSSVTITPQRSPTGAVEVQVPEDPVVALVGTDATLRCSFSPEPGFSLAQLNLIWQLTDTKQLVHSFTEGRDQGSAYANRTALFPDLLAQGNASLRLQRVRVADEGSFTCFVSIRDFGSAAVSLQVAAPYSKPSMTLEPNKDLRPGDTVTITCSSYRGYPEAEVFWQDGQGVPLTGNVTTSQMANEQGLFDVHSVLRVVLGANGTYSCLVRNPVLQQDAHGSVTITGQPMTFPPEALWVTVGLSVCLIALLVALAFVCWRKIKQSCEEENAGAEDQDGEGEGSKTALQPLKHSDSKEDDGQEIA

B1: W301088-1.145.16-xIgG1KV320 (antibody, V domains shown)
VH: DVQLQESGPGLVKPSQSLSLTCTVTDYSITGDYAWNWIRQFPGNKLEWMGYISYSGSTSYNPSLQSRISITRDTSKNQFFLQLNSVTSEDTATYFCARSLGRRWYFVVWGAGTTVTVSA
VL: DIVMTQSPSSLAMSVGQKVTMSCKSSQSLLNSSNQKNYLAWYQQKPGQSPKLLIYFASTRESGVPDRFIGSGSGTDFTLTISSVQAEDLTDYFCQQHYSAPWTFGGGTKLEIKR
- Kd [1]: 57.7 nM
- koff [1]: 0.0136 s⁻¹
- kon [1]: 235000 M⁻¹ s⁻¹
- EC50 [2]: 5.25 nM

B2: W301088-1.145.16-z3-p1-uIgG1KV320 (antibody, V domains shown)
VH: QVQLQESGPGLVKPSQTLSLTCTVTDYSITGDYAWNWIRQHPGKGLEWIGYISYSGSTSYNPSLQSRVTISRDTSKNQFSLKLSSVTAADTAVYFCARSLGRRWYFVVWGQGTTVTVSS
VL: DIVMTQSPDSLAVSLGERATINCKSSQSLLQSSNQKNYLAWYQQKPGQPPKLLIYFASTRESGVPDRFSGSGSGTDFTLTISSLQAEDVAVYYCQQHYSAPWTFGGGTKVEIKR
notes: Humanized, PTM-removed (VL N027dQ) human IgG1 LALA kappa antibody; also called WBP301088; W301088-z3-p1
- Kd [1]: 46.4 nM
- koff [1]: 0.0141 s⁻¹
- kon [1]: 303000 M⁻¹ s⁻¹
- EC50 [2]: 4.68 nM
- binding result [3]: no binding
- binding result (Human B7-H7, His Tag): no binding
- Antibody internalization EC50, MCF-7 cells (value in running text, differs from Table 16) [4]: 0.51 nM

B3: Enoblituzumab (MacroGenics) (antibody, V domains shown)
VH: EVQLVESGGGLVQPGGSLRLSCAASGFTFSSFGMHWVRQAPGKGLEWVAYISSDSSAIYYADTVKGRFTISRDNAKNSLYLQMNSLRDEDTAVYYCGRGRENIYYGSRLDYWGQGTTVTVSS
VL: DIQLTQSPSFLSASVGDRVTITCKASQNVDTNVAWYQQKPGKAPKALIYSASYRYSGVPSRFSGSGSGTDFTLTISSLQPEDFATYYCQQYNNYPFTFGQGTKLEIKR
- Kd [1]: 261 nM
- koff [1]: 0.0168 s⁻¹
- kon [1]: 64400 M⁻¹ s⁻¹
- EC50 [2]: 9.58 nM
